Experimental findings from the DeepSol protein solubility set are described below.

The data set in a line: soluble on expression in E. coli; label from the status in PepcDB or PDB records.
Take “MNSLFLLLFICFNSGCGRKYYEEDIDRAFRSAEAEILPFRPHNVFSSDDSLMLNYSIAALAAIKMAQKTRDPRQKLPHHLCPLKKYNCLYGKYRHSDGRCTNIFFALSGSAYSSFSRRIPANYDDDISTPRLHGYRNGLLPPPAVVEKQIARTPAIYAISLTNTFLEFSEFLYNDLVKFVRLQDGLGCCGTGKSGECLNFGENFLDCYIRSAPSPRAHCSLGRREQMNLATAFLDAGPIYQDLRDTSKGKISSSFTLESTTKSSIHSLLIDEHNWVVDQIQKKFPDMGLELIFEEARKFVIAELQHITFEQFLPILLGDETMKKYDLRASHCDGGSCHEVEANTLNEFGSAVGLFYKFMTSSDKIYNPSLYSTSDFSTSPTSSSSKSPNVAEIISKGRDHGIATYSQWRKECGGGELKTYEDLIDLIDSNILKSLRDLYPDVLDVDLILLGIAENPVYGSLLGPTFGCIMALQFQKTKFGDTYWYTNKLTEDQLEEVKKTSISAMMCRHQKTSIIQKDVFKAADNFQNIPIFCNSSVFAKPDFSKWVETPEKHKNEQFDDILGECILEVFEARNRQRPATLQEGLHNSVALKSYGSMMLAKDEAVNEANVSLILLEATKKLVKLKHIELDSIQSVNIGEDFGKKSDSQCNPKNLPCDSTNPYRSYTGWCNNLETPSLANTFRELRRLLPPAYEDGIDLPRSKTITGSRLPSPRVISNMVHHAKKIEHVKYSHFVMEFGQFIDHDITHSPVDQNSDGTALNCSRCDSGRFVSPSCFPIPVPVNDVHFEPFSCLSFVRSLPAQKTLGYRNQMNQVSAYLDGSVMYGSTKCEGDRLRTFQDGKMKTTQTSRAPRHYGITLSQSDESEQDGCVSAPDAPCFIAGDDRNSQQTLLIAVHSVFHREHERITTTLKEINPNWDDEKIYQETRKLISAEFAHIVYNEYLPIIIGQKLIDDYDLRPRQDGYYDGYENCDASILQPFATAAFRFGHSTVTRFTPMQETVHDPATCVVDLASDFLNMSKIYDNEAVEQILGGMHGKHQMMTDRFVDDAIRNFLFSDRGRRGTGLDLISINIQRGRDHGIPPYNHYRSFCGLSRLTSFYSIFSDINQDGLTAIGKVYESPDDIDLFTGIVSEKTIPGGIVGPTAACIIAEQFRRLKKCDRFYYENGEDHSKFSASQLKEVRKTSMSALICANTKVPKISKDVFSVPDPFRYS”: the “soluble on expression in E. coli” value was “soluble”.
Take “MAHHHHHHMPPSTYAATAANAEAQGDDVDMHVMTYDQRCHGRSTFVGGEDHLSIEVLVRDFLDVLQYAKTELYSNSNVYVLGHSLGGAVVARALSGNKSALERVSGVLLVDVVEGTAQLSLQHMKSFLKNRPNTFPEVKDAEVWFLRMGGMQNPQGAAVSVPPLLQKNDETGLWQWRTDIRKMESVWDGWFAGLDEAFISLPCAKMLCTANAERLDKTLTVAQMQGKFQLEVIGNGCGHYVMDDATPTVVAKVRRFVKRNEELAQKLQLMNKNLSGQKINTTVPPTRT”: the “soluble on expression in E. coli” value is reported as “not soluble”.
The entry for “MTKSELMVRLAEVFAAKNGTHLLAKDVEYSVKVLVDTMTRSLARGQRIEIRGFGSFDLNHRPARIGRNPKTGERVEVPEKHVPHFKPGKELRERVDLALKENAN” is “not soluble”; for “MEETEFVPHKLTELRVGTLYGPQIYMTSGQGNSGFDYDMAVLFAEYLDVPLKMVPYTNLAELYDALKKNEIDIIAAGMTETPARREHFRLGPPLYRVNQVLVYREGMPAPKDISDLKGKITVIADSSFVETLTQLQKRHPTLVWDQVTDKDNEELLTMIANKEIDYTIADSSSVQINRRYLPVLRSGLVLEEKLNVVWLLPPTHSDGLMSQLLAFWHQEKLAGTLDHLNEKYFGHVKRFDYIDTRAFLRAIETVLPRYRQHFETHAGDLDWRKLAATSYQESHWNPNARSPTGVRGMMMLTQPTAKEIGITNRLDAEESIRGGAAYLRDMINRLPESIPESQRMWFALASYNIGYAHVEDARKLAESMELNPNAWQDLKKVLPLLQKRKYYQKTRYGYARGSEAVHYVDSIRRYYDTLVWVDNQSKQQNSEEVAPSDLTAEETPVPAPGTLSPDKPKLEHHHHHH” it is “soluble”.
The entry for “MKKFDGVIFDMDGLLFDTELIYYTSTQKVADAMGLPYSKEVYLDYVGISDEEVQENYRRIYASYGHDTVEEFIRRSYDDTLQEFRSGNVPLKPGVVEFLDFLDDQKIPRLVASSNVRPAIEMLLSHAGIQDRFVGIVSAEDVKRAKPDPEIFQKARQLLGTEAPKTLIFEDSFHGVSAAHSAGIPVIMVPDLLQPTEVIQEKTLHVLESLHQAPHYLK” is “not soluble”; for “MAHSEEQAAVPCAFIRQNSGNSISLDFEPDTEYQFVEQLEERYKCAFCHSVLHNPHQTGCGHRFCQQCIRSLRELNSVPICPVDKEVIKPQEVFKDNCCKREVLNLHVYCKNAPGCNARIILGRFQDHLQHCSFQAVPCPNESCREAMLRKDVKEHLSAYCRFREEKCLYCKRDIVVTNLQDHEENSCPAYPVSCPNRCVQTIPRARVNEHLTVCPEAEQDCPFKHYGCTVKGKRGNLLEHERAALQDHMLLVLEKNYQLEQRISDLYQSLEQKESKIQQLAETVKKFEKELKQFTQMFGRNGTFLSNVQALTSHTDKSAWLEAQVRQLLQIVNQQPSRLDLRSLVDAVDSVKQRITQLEASDQRLVLLEGETSKHDAHINIHKAQLNKNEERFKQLEGACYSGKLIWKVTDYRVKKREAVEGHTVSVFSQPFYTSRCGYRLCARAYLNGDGSGKGTHLSLYFVVMRGEFDSLLQWPFRQRVTLMLLDQSGKKNHIVETFKADPNSSSFKRPDGEMNIASGCPRFVSHSTLENSKNTYIKDDTLFLKVAVDLTDLEDL” it is “soluble”.
Then “MSLHILHIASSPRGERSVSLKLASRYLETLTSLHPESTVDVLDVWTIDLLPFDGPALEAKYADLQGVQMSDEQQAVWKQIHALGERFHRADVILFSVPMWNFGVPYRLKHLIDSVSQRGVLFEFDAQGMRGLLKGKNVVVFASRGVALGEDFPTEAYDHQVAYLKTWARMVGIPTIDAVLSEATLADPATAEANFTAALAEASKLAAAVQEGHHHHHH”, with “soluble”; and “MKFALQINEGPYQHQASDSAYQFAKAALEKGHEIFRVFFYHDGVNNSTRLTTPPQDDRHIVNRWAELAEQYELDMVVCVAAAQRRGIVDEGEASRNGKDATNIHPKFRISGLGQLVEAAIQADRLVVFGD”, with “soluble”.
Turning to “MGSDKIHHHHHHMLELTPNLNMNSKKALYVQLYEYIKKEIKDGTIVPFTKLPAKRKLAIHLQVSKNTVEAAYEQLLAEGYIESISRKGYFVCKIEQMVHVEDSEERIEEVLFQEKSYKFDFTQTGIDTNAFPFNMYRKIVNEVWQPYNNELLFLGHPQGEASLREEITNYLYESRGVRCSASQIVLGAGTQILVKLLFQLLKGSNYAVENPGYHRKMVVFEQGEEKVQMLSLDRDGICMADLENSDANVVFVTPSHQFPYGMIMPITRRTQLLQWAKKAKDRYIIEDDYDSEFRYSGRPIPALQGLDTEGKVIYMGTLSKALLPSLRMSYIVLPKNLIIKYQKEYLFYTQSVSRMDQEVIRKFLNEGYWEKHIHKMRVVYRKKRDRLVFEIEKYFSNRVEVIGEDSGLHILLQVHNGMREEELIQEAAKYSIKVYPVSTYYKDGTAPENVVLLGFAILSEEEIAKAIQLLNTAWFRKKVKKHPHT”, the “soluble on expression in E. coli” value is on record as “not soluble”.
For the sequence “MGSDKIHHHHHHMLRVAVVGGGPSGSCAAEVLAKAGIQTWLFERKLDNAKPCGGAIPLCMVDEFDLPESIIDRKVRNMRMISPSNREVDITLDKVYSPDDKSEYIGMCRREVMDAFMRDRAASLGTNLINGLVTKIDTGSNRQGPYTITYSDYSTGKSTGEAKSLEVDLIIGADGANSRVATAMDAGDYNVAIAFQERIKLPNEEMAYYEDLAEMYVGTDVSPDFYGWVFPKYDHVAVGTGTMQKNQTLIKSLQKGVRERAKKRLVHGEVIKVEAHPIPEHPRPRRVVGRMALVGDAAGYVTKSSGEGIYFAAKSGRMCAEQIVESSRSGELIPSEADLKKYLKKWDRKYGSTYIVLSILQAIFYSNDTAREAFVAMCDDMDVQRLTFDSYLYKKVVAMNPWQQIKLTLLTVDALARGIFRNQTSYKPVPSAVRSDEEVNAMLEIKTITGGIKVDNNKDASKQNLASEQEERDPAVSNKS”, the “soluble on expression in E. coli” value is on record as “not soluble”.
Then “MEIMLTYKTFKILGREILIGVVWEEKIQGIAYSLDGLEFLKDQLSRVTSHLKSRGVKVNLLEEKSRYPDLVFDVLKGKIGNEKGFEELSLEGLTRFEIKVYSWLVKNVKRGEVITYGKVAKALKTSPIAVGGAMKRNPYPIIVPCHRVVGKNNPWLYTPKPSYKKFLLEVEGWIS”, with “soluble”; and “MLSLTAHLVLISTIIVKCSAFSKKPSERAKPAAVKKAVEDKQPVKVTAFEQASLNEDKAEAMSNIEPSPKISNSTVPTAPTPKKEKKVVATTKKTERSVAQGPPLVSEHIKDEKKMPSVHKPIRKGSIYANELLTEKPLTDTEPELHPDNHVVKAKSPKPVARTPTARHRNALKPGKINDKSDDTLHDAPSIQKVGGPSYEDAASVNEKEKDVNPK”, with “not soluble”.
With “MIYFIRKKKWLKQLEKGEAMKYAILIGDGMADYPIEKLGNRTILQAARTPAMDSIAARGRAGLAKTVPDSFPPGSDVANMSILGYDPATYYSGRAPLEAASMGVALAADDVAFRCNLITTEHGMIKDYSAGHISSDEAEILIDTLDYELSTENIRFYPGISYRHLIVAGNNLGAETECTPPHDITGEKIDKYLPRGKDGEFFSELIEASKVVLELHPVNLKRVEEGKNPANSIWVWGQGYAPKFTAFMKLYGKKGAVISAVDLLKGIGIYAGLDVIEVHGATGYLDTNYEGKVRAAIEALKTRDLVFVHVEAPDEAGHEGSIEKKLKAVEDFDSRIVAPILEYAENSDEPFTILVLPDHPTPISVKTHTRDPIPFAIYRTDKPETDNVEAFDEESVKNGSMGLVKASDLIGILIKS”, the “soluble on expression in E. coli” value is reported as “not soluble”.
Take “MTLLPHLATRLFGVPLAIDRPKLDVILSVLGPRVGLAGLAPPGDYTPPERNPVRGHAQIAVIPIHGTLVRRTVGLEAESGLASYTAIGEQLDAALADPGIAAILLDVDSPGGESGGVFDLADRIRVAAAIKPVWAAANDMAFSAAYALACAASRVFVSRTGGVGSIGVIAMHVDQSVKDAKDGVRYTAVFAGARKNDLNPHEPITDEAQAQLQAEVSRIYRLFVATVGSYRGLSAEAVTATEAGLFFGQDAVAAGLADAVGTFDDALAQLTASLSVPAPVASARTPSLNLQMDCSMNTQPDPAAVSVPAADAIGTTAQPPVVASPPAASVASHTDAVEIAQLCTLAGRTDLIAGFLEARATPERVRSQLLAARAEASPEIASRIDPHAQAVSADASHPASPRNPLLQAVKKRLGIQLEHHHHHH”: the “soluble on expression in E. coli” value is recorded as “soluble”.
For “MVEVKNLVAITGPKMPYELARLLKISHARATRLAAAANAQNPTPSRARTSDAQAQQPAAASPKPPAEPVAAEPKKKRAKKATPVEAGLPPLTGKITGGHACAFDVVGESYYQPALRRLRNGRHMATDNDFVADIVAEPDNPHDPNACAVYIEGFKVGYLPRDAAADFQQQVADMGVTGTWRLQTKAKLSGGWGDRPMVGVLLSLPKSLEHHHHHH”, the “soluble on expression in E. coli” value is reported as “soluble”.
